Data published in patent US11278600B2, “Human alpha-galactosidase variants” (Codexis, Inc., priority 2014, dated 2022).
Numbering of substitutions follows the chain as printed.

B1: 247 (protein)
chain: LDNGLARTPTMGWLHWERFMCNLDCQEEPDSCISEKLFMEMAELMVSEGWKDAGYEYLCIDDCWMAPQRDSEGRLQADPQRFPHGIRQLANYVHSKGLKLGIYADVGNKTCAGFPGSFGYYDIDAQTFADWGVDLLKFDGCYCDSLENLADGYKHMSLALNRTGRSIVYSCEWPLYMWPFQKPNYTEIRQYCNHWRNFADIDDSWASIKSILDWTSFNQEKIVDVAGPGGWNDPDMLVIGNFGLSWDQQVTQMALWAIMAAPLFMSNDLRHISPQAKALLQDKDVIAINQDPLGKQGYQLRQGDNFEVWERPLSGLAWAVAVINRQEIGGPRSYTIAVASLGDGVACNPACFITQLLPVKRKLGFYEWTSRLKSHINPTGTVLLQLENTMQMSLKDLL
modifications: Synthetic Polypeptide sequence of Variant No. 247 of mature Human GLA
B2: 248 (protein)
chain: B1 chain with K221T, D247N, D343G
modifications: Synthetic Polypeptide sequence of Variant No. 248 of mature Human GLA
B3: 249 (protein)
chain: B1 chain with K221T, D247N, D343K
modifications: Synthetic Polypeptide sequence of Variant No. 249 of mature Human GLA
B4: 250 (protein)
chain: B1 chain with K96I, F217R, K221R, D247N, V322M, D343K, K373R
modifications: Synthetic Polypeptide sequence of Variant No. 250 of mature Human GLA
B5: 251 (protein)
chain: B1 chain with K96I, F217R, K221R, V322M, D343K, K373R
modifications: Synthetic Polypeptide sequence of Variant No. 251 of mature Human GLA
B6: 252 (protein)
chain: B1 chain with K96I, K221R, V322M, D343K, A350G, E367D, T369D, K373R
modifications: Synthetic Polypeptide sequence of Variant No. 252 of mature Human GLA
B7: 253 (protein)
chain: B1 chain with K96I, K221R, Q302K, L316D, V322M, A337P, D343K, E367D, T369D, K373R
modifications: Synthetic Polypeptide sequence of Variant No. 253 of mature Human GLA
B8: 254 (protein)
chain: B1 chain with L100F, K221R, D247N, V322M, D343K, K373R
modifications: Synthetic Polypeptide sequence of Variant No. 254 of mature Human GLA
B9: 255 (protein)
chain: B1 chain with L100F, I208V, Q302K, V322I, F365L, K373R, I376V
modifications: Synthetic Polypeptide sequence of Variant No. 255 of mature Human GLA
B10: 256 (protein)
chain: B1 chain with L100F, I208V, Q302K, F365L, K373R, I376V
modifications: Synthetic Polypeptide sequence of Variant No. 256 of mature Human GLA
B11: 257 (protein)
chain: B1 chain with L100F, I208V, K221T, D247N, V322M, F365L, K373R, I376V
modifications: Synthetic Polypeptide sequence of Variant No. 257 of mature Human GLA

Test: HTP-analysis of supernatants pretreated with base (MUGal hydrolysis)
Format: biochemical
Conditions: challenge at pH 7.6; activity of the variant/activity of Rd2BB (SEQ ID NO: 10); yeast culture supernatant
Outline: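 GLA variants were secreted by transformed INVSc1 yeast grown 66-84 h at 30° C. Supernatants were exposed to neutral-to-basic buffers (pH 7.0-9.7) at 37° C for 1-18 h, then assayed with MUGal in acidic citrate/McIlvaine buffer, with fluorescence read after quenching.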

| Molecule | Relative Activity of GLA Variants After Challenge at pH 7.6 |
| --- | --- |
| B1 | +++ (+++ = >2.5 relative activity over Rd2BB (SEQ ID NO: 10)) |
| B2 | + (+ = 0.5 to 1.5 relative activity over Rd2BB (SEQ ID NO: 10)) |
| B3 | +++ (+++ = >2.5 relative activity over Rd2BB (SEQ ID NO: 10)) |
| B4 | + (+ = 0.5 to 1.5 relative activity over Rd2BB (SEQ ID NO: 10)) |
| B5 | ++ (++ = 1.5 to 2.5 relative activity over Rd2BB (SEQ ID NO: 10)) |
| B6 | +++ (+++ = >2.5 relative activity over Rd2BB (SEQ ID NO: 10)) |
| B7 | +++ (+++ = >2.5 relative activity over Rd2BB (SEQ ID NO: 10)) |
| B8 | + (+ = 0.5 to 1.5 relative activity over Rd2BB (SEQ ID NO: 10)) |
| B9 | +++ (+++ = >2.5 relative activity over Rd2BB (SEQ ID NO: 10)) |
| B10 | +++ (+++ = >2.5 relative activity over Rd2BB (SEQ ID NO: 10)) |
| B11 | ++ (++ = 1.5 to 2.5 relative activity over Rd2BB (SEQ ID NO: 10)) |

Test: HTP-analysis of supernatants pretreated with bovine serum (MUGal hydrolysis)
Format: biochemical
Conditions: activity of the variant/activity of Rd2BB (SEQ ID NO: 10), yeast culture supernatant
Description: Yeast (INVSc1) cells transformed with vectors expressing GLA and GLA variants using the lithium acetate method were selected on SD-Ura agar plates. After 72 h incubation at 30° C. colonies were placed into the wells of Axygen® 1.1 ml 96-well deep well plates filled with 200 μl/well SD-Ura broth (2 g/L SD-Ura, 6.8 g/L yeast nitrogen base without amino acids [Sigma Aldrich]), 3.06 g/L sodium dihydrogen phosphate, 0.804 g/L disodium hydrogen phosphate, pH 6.0 supplemented with 6% glucose. The cells were allowed to grow for 20-24 hours in a Kuhner shaker (250 rpm, 30° C., and 85% relative humidity). Overnight culture samples (20 μL) were transferred into Corning Costar® 96-well deep plates filled with 380 µL of SD-ura broth supplemented with 2% glucose. The plates were incubated for 66-84 h in a Kuhner shaker (250 rpm, 30° C., and 85% relative humidity). The cells were then pelleted (4000 rpm×20 min), and the supernatants isolated and stored at 4° C. prior to analysis.
GLA variants were challenged with bovine serum to simulate the conditions the variants encounter following infusion into a patient. First, 20 μL of yeast culture supernatant and 80 μL, of bovine serum were added to the wells of a 96-well round bottom plate. The plates were sealed and incubated at 37° C. for 1 h. For the assay, 50 μL of serum-challenged sample was mixed with 25 μL, of 1 M citrate buffer pH 4.3 and 25 μL, of 4 mM MUGal in McIlvaine buffer pH 4.8. The reactions were mixed briefly and incubated at 37° C. for 180 minutes, prior to quenching with 100 μL, of 1 M sodium carbonate. Hydrolysis was analyzed using a SpectraMax® M2 microplate reader monitoring fluorescence (Ex. 355 nm, Em. 448 nm).

| Molecule | Relative Activity of GLA Variants After Challenge with Serum |
| --- | --- |
| B1 | +++ (+++ = >2.5 relative activity over Rd2BB (SEQ ID NO: 10)) |
| B2 | + (+ = 0.5 to 1.5 relative activity over Rd2BB (SEQ ID NO: 10)) |
| B3 | ++ (++ = 1.5 to 2.5 relative activity over Rd2BB (SEQ ID NO: 10)) |
| B4 | + (+ = 0.5 to 1.5 relative activity over Rd2BB (SEQ ID NO: 10)) |
| B5 | + (+ = 0.5 to 1.5 relative activity over Rd2BB (SEQ ID NO: 10)) |
| B6 | +++ (+++ = >2.5 relative activity over Rd2BB (SEQ ID NO: 10)) |
| B7 | +++ (+++ = >2.5 relative activity over Rd2BB (SEQ ID NO: 10)) |
| B8 | + (+ = 0.5 to 1.5 relative activity over Rd2BB (SEQ ID NO: 10)) |
| B9 | ++ (++ = 1.5 to 2.5 relative activity over Rd2BB (SEQ ID NO: 10)) |
| B10 | +++ (+++ = >2.5 relative activity over Rd2BB (SEQ ID NO: 10)) |
| B11 | ++ (++ = 1.5 to 2.5 relative activity over Rd2BB (SEQ ID NO: 10)) |

Test: HTP-analysis of yeast culture supernatants, no challenge (MUGal hydrolysis)
Format: biochemical
Conditions: activity of the variant/activity of Rd2BB (SEQ ID NO: 10), yeast culture supernatant
Outline: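 Activity read as 4-methylumbelliferyl α-D-galactopyranoside hydrolysis: fluorescence (355/448 nm) after sodium carbonate stop, following 30-180 min at 37° C with 2 mM MUGal stock at pH 4.6–4.8. Enzyme source is unchallenged culture supernatant of INVSc1 yeast expressing GLA variants, grown 66-84 h at 30° C.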

| Molecule | Relative Activity of GLA Variants After No Challenge (NC) |
| --- | --- |
| B1 | +++ (+++ = >2.5 relative activity over Rd2BB (SEQ ID NO: 10)) |
| B2 | + (+ = 0.5 to 1.5 relative activity over Rd2BB (SEQ ID NO: 10)) |
| B3 | ++ (++ = 1.5 to 2.5 relative activity over Rd2BB (SEQ ID NO: 10)) |
| B4 | + (+ = 0.5 to 1.5 relative activity over Rd2BB (SEQ ID NO: 10)) |
| B5 | ++ (++ = 1.5 to 2.5 relative activity over Rd2BB (SEQ ID NO: 10)) |
| B6 | +++ (+++ = >2.5 relative activity over Rd2BB (SEQ ID NO: 10)) |
| B7 | +++ (+++ = >2.5 relative activity over Rd2BB (SEQ ID NO: 10)) |
| B8 | + (+ = 0.5 to 1.5 relative activity over Rd2BB (SEQ ID NO: 10)) |
| B9 | +++ (+++ = >2.5 relative activity over Rd2BB (SEQ ID NO: 10)) |
| B10 | ++ (++ = 1.5 to 2.5 relative activity over Rd2BB (SEQ ID NO: 10)) |
| B11 | ++ (++ = 1.5 to 2.5 relative activity over Rd2BB (SEQ ID NO: 10)) |

Test: HTP-analysis of supernatants pretreated with acid (MUGal hydrolysis)
Format: biochemical
Conditions: challenge at pH 4.2; activity of the variant/activity of Rd2BB (SEQ ID NO: 10); yeast culture supernatant
Outline: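 GLA variants were secreted from INVSc1 yeast grown 66-84 h at 30° C. in SD-Ura with 2% glucose; supernatants were mixed with McIlvaine buffer pH 3.3-4.3 and held at 37° C. for 1-3 h. Residual activity on MUGal at pH 4.8 was then measured by fluorescence.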

| Molecule | Relative Activity of GLA Variants After Challenge at pH 4.2 |
| --- | --- |
| B1 | +++ (+++ = >2.5 relative activity over Rd2BB (SEQ ID NO: 10)) |
| B2 | + (+ = 0.5 to 1.5 relative activity over Rd2BB (SEQ ID NO: 10)) |
| B3 | ++ (++ = 1.5 to 2.5 relative activity over Rd2BB (SEQ ID NO: 10)) |
| B4 | + (+ = 0.5 to 1.5 relative activity over Rd2BB (SEQ ID NO: 10)) |
| B5 | + (+ = 0.5 to 1.5 relative activity over Rd2BB (SEQ ID NO: 10)) |
| B6 | +++ (+++ = >2.5 relative activity over Rd2BB (SEQ ID NO: 10)) |
| B7 | +++ (+++ = >2.5 relative activity over Rd2BB (SEQ ID NO: 10)) |
| B8 | + (+ = 0.5 to 1.5 relative activity over Rd2BB (SEQ ID NO: 10)) |
| B9 | +++ (+++ = >2.5 relative activity over Rd2BB (SEQ ID NO: 10)) |
| B10 | +++ (+++ = >2.5 relative activity over Rd2BB (SEQ ID NO: 10)) |
| B11 | ++ (++ = 1.5 to 2.5 relative activity over Rd2BB (SEQ ID NO: 10)) |
